This is an account of results in the supplement of paper PMC7877785.

± gives the uncertainty stated by the source.

This data set can be described thus: self-splicing fitness, log relative to wild type (ln ratio); higher = more splicing; Tetrahymena group I intron in knt gene, E. coli kanamycin selection, DiMSum; sequences stand for … in CUCUCU…GGAGGGAAAAGUUAUCAGGCAUGCACCUGGUAGCUAGUCUUUAAACCAAUAGAUUGCAUCGGUUUAAAAGGCAAGACCGUCAAAUUGCGGGAAAGGGGUCAACAGCCGUUCAGUACCAAGUCUCAGGGGAAACUUUGAGAUGGCCUUGCAAAGGGUAUGGUAAUAAGCUGACGGACAUGGUCCUAACCACGCAGCCAAGUCCUAAGUCAACAGAUCUUCUGUUGAUAUGGAUGCAGUUCACAGACUAAAUGUCGGUCGGGGAAGAUGUAUUCUUCUCAUAAGAUAUAGUCGGACCUCUCCUUAAUGGGAGCUAGCGGAUGAAGUGAUGCAACACUGGAGCCGCUGGGAACUAAUUUGUAUGCGAAAGUAUAUUGAUUAGUUUUGGAGUACUCGUGGUCG
Summed up: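 DiMSum derived fitness as the error-weighted combination of fold changes across replicates, kanamycin versus no kanamycin, normalised to wild type. E. coli BL21(DE3) held the library, which randomised all eight P1ex-region intron nucleotides within the knt kanamycin-resistance gene on pET-22b(+). Six replicate transformations grew overnight at 37°C or 30°C on LB agar with or without 25 μg/mL kanamycin, also containing 100 μg/mL carbenicillin, 50 μM IPTG and 0.2% rhamnose, and pooled colonies were amplicon-sequenced on an Illumina HiSeq 2500.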

Consider AGGUAGCAAUAUUACGGUGA, for which the “self-splicing fitness (ln)” value reads like this: (30 °C) -1.732 ± 0.017; (37 °C) -1.06 ± 0.033.
The like results for AGGUAGCAAUAUUACGUACU were, in that order, -0.29 ± 0.014 and -0.101 ± 0.034.
On the same counts, the results for AGGUAGCAAUAUUACGUCAU are -2.147 ± 0.016 and -1.03 ± 0.034.
On the same counts, the results for AGGUAGCAAUAUUACGUCGG are -2.803 ± 0.022 and -1.63 ± 0.036.
Turning to AGGUAGCAAUAUUACGUGGC, the “self-splicing fitness (ln)” value by setting is: (30 °C) -3.619 ± 0.028; (37 °C) -2.74 ± 0.042.
For AGUAAGCAAUAUUACGAAAG, the “self-splicing fitness (ln)” value (30 °C) is -4.26 ± 0.37.
For AGUAAGCAAUAUUACGAAGG, the “self-splicing fitness (ln)” value by setting is: (30 °C) -3.7 ± 0.2; (37 °C) -2.07 ± 0.26.
On the same counts, the results for AGUAAGCAAUAUUACGACUG are -1.45 ± 0.12 and 0.23 ± 0.15.
The like results for AGUAAGCAAUAUUACGAGAG were, in that order, -2.28 ± 0.24 and -2.49 ± 0.29.
On the same counts, the results for AGUAAGCAAUAUUACGAGCC are -0.632 ± 0.16 and -0.472 ± 0.17.
As for AGUAAGCAAUAUUACGCACU, the “self-splicing fitness (ln)” value is, setting by setting: (30 °C) -3.07 ± 0.29; (37 °C) -1.79 ± 0.29.
AGUAAGCAAUAUUACGCAGG: the “self-splicing fitness (ln)” value runs as follows: (30 °C) -3.42 ± 0.23; (37 °C) -1.43 ± 0.2.
The like results for AGUAAGCAAUAUUACGCAUG were, in that order, -3.12 ± 0.17 and -1.95 ± 0.23.
On the same counts, the results for AGUAAGCAAUAUUACGCCGG are -2.45 ± 0.39 and -1.99 ± 0.34.
The like results for AGUAAGCAAUAUUACGCGAG were, in that order, -3.33 ± 0.21 and -1.75 ± 0.15.
AGUAAGCAAUAUUACGGAAA: the “self-splicing fitness (ln)” value (30 °C) is -3.26 ± 0.41 and the “self-splicing fitness (ln)” value (37 °C) was -0.269 ± 0.23.
The like results for AGUAAGCAAUAUUACGGACG were, in that order, -0.782 ± 0.093 and -0.415 ± 0.12.
The like results for AGUAAGCAAUAUUACGGAUC were, in that order, -1.39 ± 0.12 and -1.31 ± 0.1.
Take AGUAAGCAAUAUUACGGCCU: the “self-splicing fitness (ln)” value is 0.0223 ± 0.17 (30 °C) and -0.034 ± 0.26 (37 °C).
As for AGUAAGCAAUAUUACGGCGC, the “self-splicing fitness (ln)” value is -1.02 ± 0.11 (30 °C) and -0.433 ± 0.13 (37 °C).
Consider AGUAAGCAAUAUUACGGGCC, for which the “self-splicing fitness (ln)” value is, setting by setting: (30 °C) -1.48 ± 0.2; (37 °C) -0.26 ± 0.15.
Consider AGUAAGCAAUAUUACGGGGC, for which the “self-splicing fitness (ln)” value is, setting by setting: (30 °C) -3.29 ± 0.36; (37 °C) -2.29 ± 0.34.
On the same counts, the results for AGUAAGCAAUAUUACGGUAG are -3.89 ± 0.23 and -3.44 ± 0.29.
As for AGUAAGCAAUAUUACGGUUU, the “self-splicing fitness (ln)” value runs as follows: (30 °C) -1.45 ± 0.092; (37 °C) -0.554 ± 0.11.
On the same counts, the results for AGUAAGCAAUAUUACGUAUC are -3.99 ± 0.33 and -0.681 ± 0.23.
The like results for AGUAAGCAAUAUUACGUGCA were, in that order, -1.36 ± 0.085 and -0.712 ± 0.092.
Consider AGUAAGCAAUAUUACGUGGA, for which the “self-splicing fitness (ln)” value is -3.8 ± 0.4 (30 °C) and -3.85 ± 0.39 (37 °C).
On the same counts, the results for AGUAAGCAAUAUUACGUUAC are -3.26 ± 0.24 and -2.61 ± 0.27.
Consider AGUCAGCAAUAUUACGAAAA, for which the “self-splicing fitness (ln)” value was -1.63 ± 0.17 (30 °C) and -1.3 ± 0.2 (37 °C).
The like results for AGUCAGCAAUAUUACGAAGC were, in that order, -3.56 ± 0.18 and -2.03 ± 0.17.
With AGUCAGCAAUAUUACGACUU, the “self-splicing fitness (ln)” value (30 °C) is -2.13 ± 0.11 and the “self-splicing fitness (ln)” value (37 °C) was -1.96 ± 0.19.
Regarding AGUCAGCAAUAUUACGAGAU, the “self-splicing fitness (ln)” value (30 °C) is -2.61 ± 0.11 and the “self-splicing fitness (ln)” value (37 °C) is -1.76 ± 0.1.
The like results for AGUCAGCAAUAUUACGAGCA were, in that order, -0.935 ± 0.12 and -0.0144 ± 0.14.
For the sequence AGUCAGCAAUAUUACGAUCA, the “self-splicing fitness (ln)” value runs as follows: (30 °C) 0.171 ± 0.099; (37 °C) 0.226 ± 0.11.
On the same counts, the results for AGUCAGCAAUAUUACGAUUC are -3.27 ± 0.14 and -1.05 ± 0.1.
On the same counts, the results for AGUCAGCAAUAUUACGCAUC are -1.32 ± 0.1 and -0.329 ± 0.12.
On the same counts, the results for AGUCAGCAAUAUUACGCCCG are -0.925 ± 0.12 and -1.52 ± 0.17.
